Results: article PMC3561454

Target: Csk (UniProt P41240)
Assay: p140Cap IP, Csk western blot
Details: reference: wild type, sites Y264,Y396

binding against the reference | binding against the reference (FBS time course) | Substance
lost | – | p140Cap (from UniProt Q9C0H9) Y264F/Y396F double mutant
– | lost | p140Cap (from UniProt Q9C0H9) Y264F/Y396F double mutant, FBS time course
